Patent US20070149763A1 (Bristol-Myers Squibb, published 2007)
Where no end group is shown, it is not given here. Alexa488 = Alexa488 fluorophore label

What was measured:
[1] = target: BACE (recombinant human BACE catalytic domain, expressed in CHO cells as BACE-T-IgG, IgG1 removed with thrombin) (human) (UniProt P56817); assay: binding assay without UV light (fluorescence anisotropy); absence of UV light
[2] = target: BACE (recombinant human BACE catalytic domain, expressed in CHO cells as BACE-T-IgG, IgG1 removed with thrombin) (human) (UniProt P56817); assay: fluorescence anisotropy competition against Molecule X on BACE, pH 7.1, upper panel; labelled 'Ka' on the sheet without a unit, it is the dissociation constant of the competing ligand, nM from the axis and the lower table; error 33.456; the text prints it rounded (84 nM)
[3] = target: BACE (recombinant human BACE catalytic domain, expressed in CHO cells as BACE-T-IgG, IgG1 removed with thrombin) (human) (UniProt P56817); assay: ITC, Dulbecco's PBS, pH 7.1, 25° C.
[4] = target: BACE (recombinant human BACE catalytic domain, expressed in CHO cells as BACE-T-IgG, IgG1 removed with thrombin) (human) (UniProt P56817); assay: fluorescence anisotropy competition against 10 nM Molecule X on BACE, pH 7.1, upper panel
[5] = target: BACE (recombinant human BACE catalytic domain, expressed in CHO cells as BACE-T-IgG, IgG1 removed with thrombin) (human) (UniProt P56817); assay: ITC, 25° C., Dulbecco's PBS
[6] = target: BACE (recombinant human BACE catalytic domain, expressed in CHO cells as BACE-T-IgG, IgG1 removed with thrombin) (human) (UniProt P56817); assay: fluorescence anisotropy competition against Molecule X, pH 7.1
[7] = target: BACE (recombinant human BACE catalytic domain, expressed in CHO cells as BACE-T-IgG, IgG1 removed with thrombin) (human) (UniProt P56817); assay: fluorescence anisotropy competition against Molecule X, pH 4.5
[8] = target: BACE (recombinant human BACE catalytic domain, expressed in CHO cells as BACE-T-IgG, IgG1 removed with thrombin) (human) (UniProt P56817); assay: ITC, pH 5.3, 37° C., peptide titrated into CHO BACE pre-incubated with a 10-fold excess of OM99-2
[9] = target: BACE (recombinant human BACE catalytic domain, expressed in CHO cells as BACE-T-IgG, IgG1 removed with thrombin) (human) (UniProt P56817); assay: fluorescence anisotropy competition against Molecule X on BACE, pH 4.5, lower panel; labelled 'Ka(nM)' on the sheet, it is the dissociation constant of the competing ligand; error 337.16; the text prints it rounded (1073 nM)
[10] = target: BACE (recombinant human BACE catalytic domain, expressed in CHO cells as BACE-T-IgG, IgG1 removed with thrombin) (human) (UniProt P56817); assay: ITC, pH 5.3, 37° C., peptide titrated into CHO BACE
[11] = target: T1, BACE-1 (T7-BACE1(A14-T454)) (Homo sapiens (Human), UniProt P56817 14-454); assay: X-ray crystallography, peptide soaked into BACE-1/DPH-153979 co-crystal
T1 construct: BACE dimer in the asymmetric unit; also called Construct #1
Description: Crystals appeared overnight and grew to their final dimensions (0.4×0.3×0.2 mm) in about two weeks.
Data were collected at 100° K using a Rigaku R-axis II system mounted on a RU-200 rotating anode generator and processed using HKL2000 (Otwinowski et. al., (1997) Methods in Enzymology, Macromolecular Crystallography, Part A; C. W. Carter, Jr. and R. M. Sweet, Eds.; Academic Press: New York, 276:307-326) (Table 6). The structure was determined by molecular replacement using the program EPMR (Kissinger et. al. (1999) Acta Crystallog. Sect. D, 55:484-491) in space group P2₁ with one BACE dimer per asymmetric unit. The starting model used was a BACE dimer (without inhibitor) from a previously determined structure. […] The active site inhibitor DPH-153979 was built into the electron density using the program QUANTA (Accelrys Software, Inc.) and refinement was carried out using the program CNX (Accelrys Software, Inc.). […] Refinement was not carried out past initial building of YPYFI due to ambiguous exosite peptide density.

[12] = target: BACE (recombinant human BACE catalytic domain, expressed in CHO cells as BACE-T-IgG, IgG1 removed with thrombin) (human) (UniProt P56817); assay: cell-based or functional assay
[13] = target: BACE (recombinant human BACE catalytic domain, expressed in CHO cells as BACE-T-IgG, IgG1 removed with thrombin) (human) (UniProt P56817); assay: fluorescence anisotropy binding assay
[14] = target: BACE (recombinant human BACE catalytic domain, expressed in CHO cells as BACE-T-IgG, IgG1 removed with thrombin) (human) (UniProt P56817); assay: fluorescence anisotropy competition against Molecule Y1 on BACE, pH 4.5; labelled 'Ka(nM)' on the sheet, it is the dissociation constant of the competing ligand; error 102.58; the text prints 1197 nM
[15] = target: BACE (recombinant human BACE catalytic domain, expressed in CHO cells as BACE-T-IgG, IgG1 removed with thrombin) (human) (UniProt P56817); assay: fluorescence anisotropy competition against 10 nM Molecule Y1 on BACE, pH 4.5
[16] = target: BACE (recombinant human BACE catalytic domain, expressed in CHO cells as BACE-T-IgG, IgG1 removed with thrombin) (human) (UniProt P56817); assay: fluorescence anisotropy competition against Molecule Y1, pH 4.5
[17] = target: BACE (recombinant human BACE catalytic domain, expressed in CHO cells as BACE-T-IgG, IgG1 removed with thrombin) (human) (UniProt P56817); assay: ITC, 50 mM NaOAc, pH 4.5, 25° C.
[18] = target: BACE (recombinant human BACE catalytic domain, expressed in CHO cells as BACE-T-IgG, IgG1 removed with thrombin) (human) (UniProt P56817); assay: ITC, Dulbecco's PBS, pH 7.0, 25° C.
[19] = target: BACE (recombinant human BACE catalytic domain, expressed in CHO cells as BACE-T-IgG, IgG1 removed with thrombin) (human) (UniProt P56817); assay: ITC, 25° C., 50 mM NaOAc, pH 4.5
[20] = target: BACE (recombinant human BACE catalytic domain, expressed in CHO cells as BACE-T-IgG, IgG1 removed with thrombin) (human) (UniProt P56817); assay: fluorescence anisotropy, BACE titrated into 10 nM Molecule Y1 in the presence of 10 µM OM99-2, fit to 1:1 binding (error 1.5032); this table prints 'Kd' without a unit, nM is taken from the concentration axis and the -OM99-2 table
[21] = target: BACE (recombinant human BACE catalytic domain, expressed in CHO cells as BACE-T-IgG, IgG1 removed with thrombin) (human) (UniProt P56817); assay: fluorescence anisotropy, BACE titrated into 10 nM Molecule Y1 with 10 µM OM99-2; reference: without OM99-2
[22] = target: BACE (recombinant human BACE catalytic domain, expressed in CHO cells as BACE-T-IgG, IgG1 removed with thrombin) (human) (UniProt P56817); assay: fluorescence anisotropy binding assay, pH 4.5; comparison of label positions (X, Y1, Z)
[23] = target: BACE (recombinant human BACE catalytic domain, expressed in CHO cells as BACE-T-IgG, IgG1 removed with thrombin) (human) (UniProt P56817); assay: fluorescence anisotropy, BACE titrated into 10 nM Molecule Y1, no OM99-2, fit to 1:1 binding (error 2.1556); the text prints this value rounded (57 / 58 nM)
[24] = target: BACE (recombinant human BACE catalytic domain, expressed in CHO cells as BACE-T-IgG, IgG1 removed with thrombin) (human) (UniProt P56817); assay: fluorescence anisotropy, BACE titrated into 10 nM labeled peptide, pH 4.5, 1:1 model
[25] = target: BACE (recombinant human BACE catalytic domain, expressed in CHO cells as BACE-T-IgG, IgG1 removed with thrombin) (human) (UniProt P56817); assay: fluorescence anisotropy, pH 4.5 (value quoted for the labeled EBP used in the truncation screen)
[26] = target: BACE (recombinant human BACE catalytic domain, expressed in CHO cells as BACE-T-IgG, IgG1 removed with thrombin) (human) (UniProt P56817); assay: fluorescence anisotropy binding assay, pH 4.5
[27] = target: BACE (recombinant human BACE catalytic domain, expressed in CHO cells as BACE-T-IgG, IgG1 removed with thrombin) (human) (UniProt P56817); assay: fluorescence anisotropy, BACE titrated into 10 nM labeled peptide, pH 7.1, 1:1 model

Sequence of BACE (recombinant human BACE catalytic domain, expressed in CHO cells as BACE-T-IgG, IgG1 removed with thrombin) (human) (P56817 43-460 limits assumed, form in doubt): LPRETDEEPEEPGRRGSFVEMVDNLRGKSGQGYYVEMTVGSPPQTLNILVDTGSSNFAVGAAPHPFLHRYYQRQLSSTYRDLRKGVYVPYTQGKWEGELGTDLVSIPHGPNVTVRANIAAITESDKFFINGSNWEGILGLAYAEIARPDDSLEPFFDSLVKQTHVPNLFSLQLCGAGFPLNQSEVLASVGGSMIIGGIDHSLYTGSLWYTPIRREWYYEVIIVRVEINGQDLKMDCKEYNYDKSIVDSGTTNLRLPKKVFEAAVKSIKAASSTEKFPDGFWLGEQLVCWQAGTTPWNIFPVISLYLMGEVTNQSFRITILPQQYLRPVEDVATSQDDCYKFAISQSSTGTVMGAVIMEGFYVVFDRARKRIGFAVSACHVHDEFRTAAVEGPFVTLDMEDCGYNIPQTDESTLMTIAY
T1 sequence (P56817 other isoform, or with tags, fused parts or gaps limits assumed): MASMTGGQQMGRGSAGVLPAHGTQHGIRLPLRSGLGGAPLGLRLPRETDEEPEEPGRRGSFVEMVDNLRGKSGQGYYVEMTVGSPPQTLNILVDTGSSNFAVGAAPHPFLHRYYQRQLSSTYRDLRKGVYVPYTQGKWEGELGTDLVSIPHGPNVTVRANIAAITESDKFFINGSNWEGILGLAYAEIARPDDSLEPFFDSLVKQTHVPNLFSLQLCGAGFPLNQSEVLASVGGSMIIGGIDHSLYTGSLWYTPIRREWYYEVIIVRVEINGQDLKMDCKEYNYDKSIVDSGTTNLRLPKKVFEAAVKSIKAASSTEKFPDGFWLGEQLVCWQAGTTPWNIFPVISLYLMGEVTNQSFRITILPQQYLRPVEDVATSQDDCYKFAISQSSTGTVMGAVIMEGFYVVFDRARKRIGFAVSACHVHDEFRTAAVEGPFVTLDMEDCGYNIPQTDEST

YPYFIPB-Alexa488 (peptide)
Kd [1]: 100 nM

YPBFIPL-Alexa488 (peptide)
Kd [1]: 100 nM

B1: … (peptide)
peptide: Ac-NLTTYPYFIPLP-NH2
Kd [2]: 84.2 nM
Kd [3]: 61 nM
IC50 (read off the curve) [4]: 500 nM
Ka [5]: 1.65e+07 M⁻¹
n (stoichiometry) [5]: 1.03
ΔH [5]: -12.9 kcal/mol
Kd [6]: 84 nM
Kd [7]: 1070 nM
Kd [8]: 280 nM
Stoichiometry (mole:mole) [8]: 0.96 mole:mole
T(dS) [8]: -5.7 kcal/mol
ΔG [8]: -9.3 kcal/mol
ΔH [8]: -15 kcal/mol
Kd [9]: 1070 nM
Kd [10]: 380 nM
Stoichiometry (mole:mole) [10]: 0.93 mole:mole
T(dS) [10]: -6.8 kcal/mol
ΔG [10]: -9.1 kcal/mol
ΔH [10]: -15.9 kcal/mol

B2: BMS-597041 (YPYFIPL-Alexa488 Fluorophore) (peptide)
peptide: YPYFIPL-Alexa488
binding result [11]: binds

B3: Molecule Y3 (peptide)
peptide: YPYFIPL
modifications: not fully specified (N-terminus, C-terminus)
IC50, inhibition of the proteolytic activity of BACE (cleavage of MCA-…(-dnp)-COOH, HPLC) [12]: 731 nM
Kd [13]: 48 nM

B4: YPYFIPL (peptide)
peptide: Ac-YPYFIPL-NH2
Kd [14]: 1200 nM
IC50 (read off the curve) [15]: 3000 nM
Kd [16]: 1200 nM

B5: BMS-655507 (Ac-His-Trp-Pro-Phe-Phe-Ile-Arg-Ser) (peptide)
peptide: Ac-HWPFFIRS-NH2
Kd [17]: 1640 nM
Stoichiometry [17]: 0.86
TΔS [17]: -5.46 kcal/mol
ΔG [17]: -7.9 kcal/mol
ΔH [17]: -13.3 kcal/mol
Kd [18]: 914 nM
Stoichiometry [18]: 0.71
TΔS [18]: -9.81 kcal/mol
ΔG [18]: -8.23 kcal/mol
ΔH [18]: -18 kcal/mol
Ka [5]: 1.09e+06 M⁻¹
Ka [19]: 610000 M⁻¹

B6: Molecule Y1 (YPYFIPL with C-terminal Alexa488) (peptide)
peptide: YPYFIPL
modifications: not fully specified (N-terminus, C-terminus)
Kd [20]: 9.59 nM
fold enhancement of affinity in the presence of 10 µM OM99-2 [21]: 5 fold
Kd [13]: 57 nM
Kd [22]: 58 nM
Kd [23]: 57.6 nM

B7: … (peptide)
peptide: Ac-ALYPYFLPISAK-NH2
Kd [3]: 113 nM
Ka [5]: 8.86e+06 M⁻¹
n (stoichiometry) [5]: 1.06
ΔH [5]: -11.8 kcal/mol

B8: Molecule Y2 (peptide)
peptide: YPYFIPL
modifications: not fully specified (N-terminus, C-terminus)
Kd [13]: 92 nM

B9: Molecule Y4 (peptide)
peptide: YPYFIPL
modifications: not fully specified (N-terminus, C-terminus)
Kd [13]: 62 nM

B10: Molecule X (… labeled with Alexa488) (peptide)
peptide: NLTTYPYFIPLP
modifications: also: Alexa488 label, position shown only
Kd [24]: 904 nM
Kd [25]: 1000 nM
Kd [26]: 903 nM
Kd [27]: 139 nM
